Results reported in paper PMC5146998.

Biological target: CTF2 mutant MUT9 (3xFLAG-tagged) (chicken) (UniProt Q90762)
Assay: co-IP

Sequence of UniProt Q90762 (Q90762 637-790, change not shown): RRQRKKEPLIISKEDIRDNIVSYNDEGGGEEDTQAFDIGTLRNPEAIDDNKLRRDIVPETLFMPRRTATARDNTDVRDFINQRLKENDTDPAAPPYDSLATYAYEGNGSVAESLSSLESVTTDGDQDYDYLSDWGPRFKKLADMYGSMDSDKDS

percent inhibition of β-catenin co-immunoprecipitation against wild-type CTF2: 87.5%
Substance: β-catenin (endogenous, LMH cells) (natural protein)
